In paper PMC11775670 one finds acetyl group hydrolysis by PksD relative to the acetyl-PksJ ACP4 domain, intact protein-MS data, which are given here for three substances.

This experiment addresses PksD (Bacillus subtilis str. 168) (UniProt O34877). The note with it: scale: % relative to the acetyl-PksJ ACP4 domain.
Sequence of UniProt O34877 (O34877 whole entry, the tested form may be a part): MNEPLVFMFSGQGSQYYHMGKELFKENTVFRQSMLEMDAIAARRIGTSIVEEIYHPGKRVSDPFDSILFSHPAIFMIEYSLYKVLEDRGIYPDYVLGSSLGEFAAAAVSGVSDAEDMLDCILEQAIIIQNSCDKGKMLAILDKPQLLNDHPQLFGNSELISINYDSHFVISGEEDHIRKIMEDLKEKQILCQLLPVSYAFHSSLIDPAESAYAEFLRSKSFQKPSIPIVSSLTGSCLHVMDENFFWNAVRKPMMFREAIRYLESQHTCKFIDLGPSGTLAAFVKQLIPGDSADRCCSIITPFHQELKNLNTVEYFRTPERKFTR
The substance “acetyl-loaded BlmVIII ACP7 domain (domain or fragment)” gave an acetyl group hydrolysis by PksD relative to the acetyl-PksJ ACP4 domain, intact protein-MS of 12.

In turn, “acetyl-loaded GbnD5 ACP12 domain (domain or fragment)” came in with an acetyl group hydrolysis by PksD relative to the acetyl-PksJ ACP4 domain, intact protein-MS of 41.

With “acetyl-loaded IcoA PCP2 domain (domain or fragment)”, the acetyl group hydrolysis by PksD relative to the acetyl-PksJ ACP4 domain, intact protein-MS is 7.
